Substitutions are numbered along the chain they refer to.
B1: CAR6 (TIGIT mutant peptide Mut6-CD28TM-28Z) (receptor)
chain: MMTGTIETTGNISAEKGGSIILQCHLSSTTAQVTQVNWEQQDQLLAIWNADLGWHISPSFKDRVAPGPGLGLTLQSLTVNDTGEYFCIYHTYPDGTYTGRIFLEVLESSVAEHGARFQIPFWVLVVVGGVLACYSLLVTVAFIIFWVRSKRSRGGHSDYMNMTPRRPGPTRKHYQPYAPPRDFAAYRSRVKFSRSADAPAYKQGQNQLYNELNLGRREEYDVLDKRRGRDPEMGGKPRRKNPQEGLYNELQKDKMAEAYSEIGMKGERRRGKGHDGLYQGLSTATKDTYDALHMQALPPR
B2: CAR30 (wild-type TIGIT polypeptide-CD28TM-28Z) (receptor)
chain: B1 chain with W48C

Key:
[1] = molecular target: CD112 on MDA-MB-231-Luc-GFP and MDA-MB-231-CD155(-)-Luc-GFP cells (human) (UniProt Q92692); experiment: flow cytometry of MDA-MB-231-Luc-GFP cells stained with the antibody, control incubated with PBS
[2] = molecular target: CD112 (labelled CD112 molecule / CD112 antigen of Example 2) (UniProt Q92692); experiment: flow cytometry, labelled CD112 on CAR-CHO cells; MFI of CD112-positive cells / MFI of TIGIT-positive cells
[3] = molecular target: T1, CD155 (labelled CD155 molecule / CD155 antigen of Example 2) (UniProt P15151); experiment: flow cytometry, labelled CD155 on CAR-CHO cells; MFI of CD155-positive cells / MFI of TIGIT-positive cells
T1 sequence (labelled for flow cytometry, label not stated, looked up): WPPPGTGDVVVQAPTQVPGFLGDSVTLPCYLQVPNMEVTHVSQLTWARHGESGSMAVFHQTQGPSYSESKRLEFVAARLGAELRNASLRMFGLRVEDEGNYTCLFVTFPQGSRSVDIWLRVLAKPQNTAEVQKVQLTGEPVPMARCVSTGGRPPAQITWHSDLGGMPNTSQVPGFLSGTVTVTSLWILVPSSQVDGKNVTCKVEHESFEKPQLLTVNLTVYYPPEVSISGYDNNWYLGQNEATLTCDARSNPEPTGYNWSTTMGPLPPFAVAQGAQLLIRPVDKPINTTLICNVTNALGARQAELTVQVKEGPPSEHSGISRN

Molecule | MFI, fold over the control group [1] | relative MFI of CD112 (CD112/TIGIT) [2] | relative MFI of CD155 (CD155/TIGIT) [3]
CD112 (Nectin2) Monoclonal Antibody (R2.525) PE | 4 fold | – | –
B1 | – | 0.13 | 1.34
B2 | – | 0.16 | 1.03
